From the nanobody polyreactivity screen of Harvey et al. (2022)

assay: yeast display, Sf9 membrane polyspecificity reagent, FACS + sequencing; frameworks hold sequencing errors
Outline: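 Genes from sorted yeast were amplified by colony PCR, read by MiSeq 2 × 250 sequencing and filtered on CDR length. These cells carried a synthetic nanobody library in Saccharomyces cerevisiae BJ5465 and were sorted by FACS into low and high (top ~1%) gates on anti-HA and streptavidin fluorescence. Polyreactivity is labelled according to the gate of origin.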

Sequence	polyreactivity (PSR sort gate)
QVQLVESGGGLVQAGGSLRLSCAASGSTNRAYAMGWYRQAPGKERELVAAISYSGDSTYYADSVKGRFTISRDNAKNTVYLQMNSLKPEVTAVYYCNTAVWGPHRYDYWGQGTQVTVSS	low polyreactivity
QVQLVESGGGLVQAGGSLRLSCAASGSTPVYAMGWYRQAPGKERELVAAIRRRASSTYYADSVKGRFTISRDNAKNPVYLQMNSLKPEDTAVYYCAVGRVNGVLLGYWGQGTQVTVSS	high polyreactivity
QVQLVESGGGLVQAGGSLRLSCAASGSTQYGYAMGWYRQAPRKERELVAAINTGGSTNYADSVKGRFSISRDNAKNSVYLQMNSLKPEDTAVYYCAADYEWDAFSYDYWGQGTQVTVSS	low polyreactivity
QVQLVESGGGLVQAGGSLRLSCAASGSTSDINAMGWYRQAPGKERELVAVITFSGGSTNYADSVKGRFTISRDNAKNTVYLQMNSLKPEDTAVYYCNADTLTTTRRFNPYDYWGQGTQVTVSS	low polyreactivity
QVQLVESGGGLVQAGGSLRLSCAASGSTSGFYAMGWYRQAPGKERELVAAIDVSGGSTYYADSVKGRFTISRDNAKNTVYLQIHSLKPEDTAVYYCAAYRRNVWSARYGYWGQGTQVTVSS	high polyreactivity
QVQLVESGGGLVQAGGSLRLSCAASGSTSGIYAMGWSRQAPGKERELVAAIDTSGGSTYADSVKGRFTISRDNAKNTVYLQMNSLKPEATAVYYCARTWGLRYRWSYGRSRYNFWGQGTQVTVSS	low polyreactivity
QVQLVESGGGLVQAGGSLRLSCAASGSTSGKNAMGWYRQAPGKERELVAAIRNSGGTTYYADSVKGRFTISRDNAKNTVYLQMNSLKPEDTAVYYCATRYYLKFLDGYNYWGQGTQVTVSS	high polyreactivity
QVQLVESGGGLVQAGGSLRLSCAASGSTSGRNVMGWYRQSPGKERELVAAISSRGGSTYYADSVKGRFTISRDNEKNTVYLQMNSLKPEDTAVYYCASRYGAYSGYDYWGQGTQVTVSS	high polyreactivity
QVQLVESGGGLVQAGGSLRLSCAASGSTSIYYTMGWYRQAPGKERELVAYADSVKGRFTISRDNAKNTVYLQMNSMKPEDTEVYFCAAPRTYYSELTSPYDYWGQGTQVTVSS	low polyreactivity
QVQLVESGGGLVQAGGSLRLSCAASGSTSLGYAMGWYRQAPGKERELVASISWTGGGTYYADSVKGRFTLSRDNAKNTVYLQMNSLKPDDTAVYYCAADLTGYHPYIYGYWGQGTQVTVSS	low polyreactivity
QVQLVESGGGLVQAGGSLRLSCAASGSTSNVYAMGWYRQAPGKERELVAAIRWSGGNTYYADSVKGRFTISRDNAKNTFYLQMNSLKPEDTAVYYCAAFYRYVSTIFDYWGQGTQVTVSS	high polyreactivity
QVQLVESGGGLVQAGGSLRLSCAASGSTSPFNAMGWYRQAPGKERELVASITSSGSTNYADSVKGLFTISRDNAKYTVYFQMNSLKPEDTAVYYCATEGVVSETIYDYWGQGSQVTVSS	low polyreactivity
QVQLVESGGGLVQAGGSLRLSCAASGSTSPFYVMGWYRQAPGKERELVAAISYSGGSTYYADSVKGRFTISRDNAKNTVYLQMISLKPEDTAVYYCAARYRLTYGLYGYWGQGTQVTVSS	high polyreactivity
QVQLVESGGGLVQAGGSLRLSCAASGSTSPGYAMGWYRLEPGKERELVAAITFRGTRTYYADSVKGRFTISRDNAKKTVYLLMNSLKPEDTAVYYCNVVGYGPNRGRVDYWGQGTQVTVSS	high polyreactivity
QVQLVESGGGLVQAGGSLRLSCAASGSTSPGYAMGWYRQAPGKERELVAAITFRGTRTYYSDSVKGRFTISRDNAKNTVYLQMNSQKPDDTAVYYCNVVGYGPNRGRVDYCGQGTQVTVSS	high polyreactivity
QVQLVESGGGLVQAGGSLRLSCAASGSTSPYYDRGWSRQAPGKERELVAAITSGGSTNYADSVKGRFTISRDYAKNSVYLQMNSLKPEDTAVYYCATDWSDDLWTWYYYWGQGTQVTVSS	high polyreactivity
QVQLVESGGGLVQAGGSLRLSCAASGSTSRQYAMGWYRQAPGKERELVAAITWSGASTNYADSVKGRFTISRDNAKNTVYLQMNSLKREDTAVYYCAAYRWVYPDVIYDYWGQGTQVTVSS	high polyreactivity
QVQLVESGGGLVQAGGSLRLSCAASGSTSSVYAMGWYRQAPGKERELVAAISYRGARTYYADSVKGRFTISRDNAKNTVYFQMNSLKPEDTAVYYCAAENYPRRPRYDYWGQATQVTVSS	high polyreactivity
QVQLVESGGGLVQAGGSLRLSCAASGSTSTWYAMGWYRQAPGKERELVATITGSGDTTYYADSVKGRFTISRDNAKNTVYLQMNSLKPEDTAVYYCAADYDPDDDTYDYWGQGTQVTVSS	low polyreactivity
QVQLVESGGGLVQAGGSLRLSCAASGSTSTYYAMGWYRQAPWKERELVAANTLGAGRTYADSEKGRFTISRDNAKNTVSLQMNSLKPEDTAVYYCAADGYISVNYLRYDYWGQGTQVTVSS	low polyreactivity
QVQLVESGGGLVQAGGSLRLSCAASGSTSVDYTMGLYRQAPGKERELVAAIDYNGDSTYYADSVKGRFTISRDNAKNTVYLQMNSLKPEDTAVYYCAADYLSFVVVKLYGYWGQGTQVTVSS	low polyreactivity

Sequence	polyreactivity (PSR sort gate)
QVQLVESGGGLVQAGGSLRLSCAASGSTSVKYAMGWYRQAPGKERELVAAIRKRGDSTYYADSVKGRFTISRDNAKNTVYLQMNSLKPEDTAVYYCAAQYLRGRGYWGQGTQVTVSA	low polyreactivity
QVQLVESGGGLVQAGGSLRLSCAASGSTSVVNARGWSRPAPGKERELVAAISTGGASTYYADSVKGRYTISRDNAKNTVYLQMNSLKPEDTAVYYCAADLGYEYDYWGQCTQVTVSS	high polyreactivity
QVQLVESGGGLVQAGGSLRLSCAASGSTSVYYAMGWYRQAPGKERELVAAITSGGRTYYADSVKGRFTISRDNAKNTVYLQMNSLKPEDTAVYYCNKGLYYFLPTKFRLDYWGQGTQVTVSS	high polyreactivity
QVQLVESGGGLVQAGGSLRLSCAASGSTSYFNVKGWYRQAPGKERELVAAISWSGGSTYADSVKGRFTISRDNAKNTVYLQMNSLKREDTAVYYCNKDYGYVQLRFYGPGYYWGQGTQVTVSS	low polyreactivity
QVQLVESGGGLVQAGGSLRLSCAASGSTSYRYAMGWYRQAPGKERELVATITSGGRTYYADSVKGRFTISRDNAKNTVYLQMNSLKPEDTAVYYCNKLNYWYKHYYWGQGTQVTVSS	high polyreactivity
QVQLVESGGGLVQAGGSLRLSCAASGSTVDFNAMGWYRQAPGKERELVAGISRDGGSTYYADSVKGRFTISRDYAKNTVYLEMNSLKPEDTAVYYCAVEAWSVPPYDYWGQGTQVTVSS	low polyreactivity
QVQLVESGGGLVQAGGSLRLSCAASGSTVGSNAMGWYRQAPGKERELVAAISSDGSTNYADSVKGRFTISRDNAKNTVSLQMNSLKPEETAVYYCKAVVQDADWGYDYWGQGTQVTLSS	low polyreactivity
QVQLVESGGGLVQAGGSLRLSCAASGSTVNFYAMGWYRQAPGKERELVAAISWRGNTYYADSVKGRFTISRDNAKNTVYLQITSLKPEDTAVSYCDAYEWLAYTSAWYGYWGQGTQVTVSS	high polyreactivity
QVQLVESGGGLVQAGGSLRLSCAASGSTWIYAMGWYRQAPGKERELVAAISGSGDRTYYADSVKGRFTISRDNAKNTVYLLMNSLQPEDTAVYFCATVYYKSGKYDYWGQGTQVTVSS	high polyreactivity
QVQLVESGGGLVQAGGSLRLSCAASGSTYGGYAMGWYRQAPGKETELVAAISRSGSSTYYADSVKGRFTISRDNAKNTVYLQMNSLKPEDTAVYYCAKRRPALRWIYYYWGQGTQVTVSS	high polyreactivity
QVQLVESGGGLVQAGGSLRLSCAASGSTYLYYAMGWYRQAPGKEREMVAAIWSDGSTRYADSVKGRFTISRDNAKNTVYLQMNSLKPEDTAVYYCAVYNYWGQGTQVTVSS	low polyreactivity
QVQLVESGGGLVQAGGSLRLSCAASGSTYPYAMGWYRPAPGKERELVAAITWSGGNTYYADSVKGRFTISRDNAKNTVYLQMNSLKPEDTAVYYCAKSRYATQTDYNYWGQGTQVTVSS	high polyreactivity
QVQLVESGGGLVQAGGSLRLSCAASGSTYQNAMGWYRQAPGKEREFVAAISWSGGSTYYADSVKGRFTISRDNAKNTVYLQMNSLKPEDTAVYYCAAYSYFSPWYDYWGQGTQVTVSS	high polyreactivity
QVQLVESGGGLVQAGGSLRLSCAASGSTYRLYTMGWYRQAPGKERELVAAITSGGSTNYADSVKGRFTISRDNAKNTVYLQMYSLKPEDTAVYYCAKAKRFPSFDYWGQGTQVTVSS	low polyreactivity
QVQLVESGGGLVQAGGSLRLSCAASGSTYRPYAMGWYRQAPGKERELVAAITGSGGSTYYADSVKGRFTISRDNAKITDYLQMNSLKPEDTAVYYCNAVSTWRYYYWGQGTQVTVSS	high polyreactivity
QVQLVESGGGLVQAGGSLRLSCAASGSTYSTNAMGWYRQAPGKERELVAAISRSGGSTYYADTVKRRFTISRDNAKITVYLQMNRLKPEDTAVYYCARYSFRGTNVRYDYWGQGTQVTVSS	high polyreactivity
QVQLVESGGGLVQAGGSLRLSCAASGSTYSYYVMGWYRQAPGKERELVAAISRSGGRTYYADSVKGRFTISRDNAKNTVYLQMNSLKPEDTAVNYCAAREFDHPPYDYWGQGTQVTVSS	high polyreactivity
QVQLVESGGGLVQAGGSLRLSCAASGSTYTNAMGWYRPAPGKERELVAAITWSGGTTYYADSVKGRLTISRDNAKNTVYLQMNSLKPEDTAVYYCAAEYRWYSRYFNYWGQGTQVTVSS	high polyreactivity
QVQLVESGGGLVQAGGSLRLSCAASGSTYWINAMGWYRQAPGKEREFVAAIRWNGGSTNYADSVKGRFTISRDNAKNTVYLQMNSLKPEDTAVYYCAADGYIGWRHIYEYWGQGTQVTVSS	low polyreactivity
QVQLVESGGGLVQAGGSLRLSCAASGSTYWNAMGWYRQAPGKERELVAAITFRGGSTYADSLKGRFTISRDNAKNTVSLQMISLKPEDTAVYYCAKASYHRWYNVRNRAGYDYWGQGTQVTVSS	high polyreactivity
